The numbers were not newly measured in article PMC11209288, which cites them from elsewhere.

A word on the Kd: it is the constant that tells how readily two partners part at equilibrium.

The target in the series is inositol 1,4,5-triphosphate receptor (IP3R) (Homo sapiens) (UniProt Q14643).
Sequence of UniProt Q14643 (Q14643 whole entry): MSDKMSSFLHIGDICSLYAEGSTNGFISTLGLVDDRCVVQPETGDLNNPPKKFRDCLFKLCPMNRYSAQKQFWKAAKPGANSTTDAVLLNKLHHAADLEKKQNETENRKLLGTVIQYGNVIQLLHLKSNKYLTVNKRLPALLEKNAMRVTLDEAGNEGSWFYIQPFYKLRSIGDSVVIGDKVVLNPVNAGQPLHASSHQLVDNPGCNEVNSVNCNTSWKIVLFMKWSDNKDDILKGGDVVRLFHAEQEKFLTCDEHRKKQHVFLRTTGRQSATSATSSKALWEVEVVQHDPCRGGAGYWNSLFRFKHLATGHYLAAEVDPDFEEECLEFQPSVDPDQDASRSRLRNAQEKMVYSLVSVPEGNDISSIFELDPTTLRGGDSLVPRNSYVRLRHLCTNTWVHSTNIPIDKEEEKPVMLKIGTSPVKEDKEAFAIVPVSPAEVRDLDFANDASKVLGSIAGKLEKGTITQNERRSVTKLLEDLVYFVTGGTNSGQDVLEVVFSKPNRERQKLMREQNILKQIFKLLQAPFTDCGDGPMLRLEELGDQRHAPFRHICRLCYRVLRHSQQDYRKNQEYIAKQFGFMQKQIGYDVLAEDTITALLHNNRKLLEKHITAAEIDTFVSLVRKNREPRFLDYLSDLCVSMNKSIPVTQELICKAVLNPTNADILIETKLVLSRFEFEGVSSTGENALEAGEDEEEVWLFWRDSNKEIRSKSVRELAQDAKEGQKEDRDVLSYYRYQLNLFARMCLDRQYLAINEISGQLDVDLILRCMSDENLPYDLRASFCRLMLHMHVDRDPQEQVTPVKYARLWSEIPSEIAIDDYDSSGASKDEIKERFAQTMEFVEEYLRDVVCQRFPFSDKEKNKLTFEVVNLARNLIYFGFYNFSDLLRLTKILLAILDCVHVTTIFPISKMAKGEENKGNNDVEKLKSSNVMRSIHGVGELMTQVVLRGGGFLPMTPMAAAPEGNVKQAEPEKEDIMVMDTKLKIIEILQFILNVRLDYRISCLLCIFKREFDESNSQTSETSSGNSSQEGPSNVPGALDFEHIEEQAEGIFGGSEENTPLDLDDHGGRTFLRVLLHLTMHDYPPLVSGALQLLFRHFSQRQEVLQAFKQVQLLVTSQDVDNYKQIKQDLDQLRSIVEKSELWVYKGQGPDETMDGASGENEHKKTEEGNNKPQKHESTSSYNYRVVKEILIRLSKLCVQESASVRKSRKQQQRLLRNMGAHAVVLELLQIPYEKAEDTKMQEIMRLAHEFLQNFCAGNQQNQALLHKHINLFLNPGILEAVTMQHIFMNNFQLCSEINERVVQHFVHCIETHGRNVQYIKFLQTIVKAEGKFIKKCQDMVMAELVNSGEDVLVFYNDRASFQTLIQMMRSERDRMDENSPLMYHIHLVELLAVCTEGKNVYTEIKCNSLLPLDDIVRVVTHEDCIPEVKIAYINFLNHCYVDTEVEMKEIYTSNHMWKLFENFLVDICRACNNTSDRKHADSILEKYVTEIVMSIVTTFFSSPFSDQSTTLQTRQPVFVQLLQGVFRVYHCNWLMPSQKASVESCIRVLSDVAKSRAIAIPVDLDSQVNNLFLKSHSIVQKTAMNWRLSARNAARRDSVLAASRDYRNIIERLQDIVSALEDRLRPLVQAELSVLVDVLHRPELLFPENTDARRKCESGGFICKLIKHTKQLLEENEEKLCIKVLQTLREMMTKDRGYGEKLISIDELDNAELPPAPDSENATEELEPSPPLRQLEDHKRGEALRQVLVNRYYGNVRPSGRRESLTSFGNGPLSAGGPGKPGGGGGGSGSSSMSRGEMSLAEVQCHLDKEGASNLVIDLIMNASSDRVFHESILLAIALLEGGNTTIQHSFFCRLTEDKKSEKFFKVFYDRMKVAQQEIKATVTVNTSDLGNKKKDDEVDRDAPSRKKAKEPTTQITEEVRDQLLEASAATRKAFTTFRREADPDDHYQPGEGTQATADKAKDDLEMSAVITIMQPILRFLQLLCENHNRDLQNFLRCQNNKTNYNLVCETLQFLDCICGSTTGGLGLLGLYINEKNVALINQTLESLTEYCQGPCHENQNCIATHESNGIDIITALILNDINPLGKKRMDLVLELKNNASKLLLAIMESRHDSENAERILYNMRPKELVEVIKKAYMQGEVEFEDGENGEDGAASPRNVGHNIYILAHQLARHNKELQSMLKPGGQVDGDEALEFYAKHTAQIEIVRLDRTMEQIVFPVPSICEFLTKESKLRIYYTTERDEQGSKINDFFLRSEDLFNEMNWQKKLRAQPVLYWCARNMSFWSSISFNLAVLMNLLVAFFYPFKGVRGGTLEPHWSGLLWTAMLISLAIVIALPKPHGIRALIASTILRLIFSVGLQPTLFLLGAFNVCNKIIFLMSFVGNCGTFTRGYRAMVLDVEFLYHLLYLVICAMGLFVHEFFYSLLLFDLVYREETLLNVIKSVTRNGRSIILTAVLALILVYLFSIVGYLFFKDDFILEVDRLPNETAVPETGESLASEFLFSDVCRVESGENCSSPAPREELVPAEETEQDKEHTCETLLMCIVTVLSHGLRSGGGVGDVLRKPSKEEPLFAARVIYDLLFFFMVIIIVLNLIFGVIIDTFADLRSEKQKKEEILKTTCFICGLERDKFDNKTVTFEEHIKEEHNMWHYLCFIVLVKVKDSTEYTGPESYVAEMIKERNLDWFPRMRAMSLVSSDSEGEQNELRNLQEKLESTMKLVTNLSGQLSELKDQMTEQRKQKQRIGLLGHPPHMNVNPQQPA

Bok (from UniProt Q9UMX3): the dissociation constant (Kd) was 65 nM.
